In patent US20260028391A1 (HUMABS BIOMED, published 2026):

B1: MPH12 VH-FRGL / MPH12 VL-FRGL (antibody, V domains shown)
VH: QVQLVESGGGLVKPGGSLRLSCAASGFTFSGFYMKWIRQAPGKGLEWVSSISASGSYTNYADSVEGRFTISRDNAKNSLYLQMNSLRAEDTAVYYCARGDSYCGASACHGEFFHKWGQGTLVTVSS
VL: QSVLTQPPSVSGAPGQRVTISCTGSDSNIGADFDVHWYQQLPGTAPKLLIYGNINRPSGVPDRFSGSKSGTSASLAITGLQAEDEADYYCQSYDRSLHYVFGTGTKVTVL
notes: MPH12 variant; VH and VL only
B2: MPH12 VH-FRGL / MPH12 VL-S26A (antibody, V domains shown)
VH: QVQLVESGGGLVKPGGSLRLSCAASGFTFSGFYMKWIRQAPGKGLEWVSSISASGSYTNYADSVEGRFTISRDNAKNSLYLQMNSLRAEDTAVYYCARGDSYCGASACHGEFFHKWGQGTLVTVSS
VL: QSVLTQPPSVSGAPGQRVTISCTGSDANIGADFDVHWYQQLPGTAPKLLIYGNINRPSGVPDRFSGSRSGTSAFLAITRLQAEDEADYYCQSYDRSLHYVFGAGTKVTVL
notes: MPH12 variant; VH and VL only
B3: MPH12 VH-FRGL / MPH12 VL-D25E (antibody, V domains shown)
VH: QVQLVESGGGLVKPGGSLRLSCAASGFTFSGFYMKWIRQAPGKGLEWVSSISASGSYTNYADSVEGRFTISRDNAKNSLYLQMNSLRAEDTAVYYCARGDSYCGASACHGEFFHKWGQGTLVTVSS
VL: QSVLTQPPSVSGAPGQRVTISCTGSESNIGADFDVHWYQQLPGTAPKLLIYGNINRPSGVPDRFSGSRSGTSAFLAITRLQAEDEADYYCQSYDRSLHYVFGAGTKVTVL
notes: MPH12 variant; VH and VL only
B4: MPH12 VH-FRGL / MPH12 VL-D25S (antibody, V domains shown)
VH: QVQLVESGGGLVKPGGSLRLSCAASGFTFSGFYMKWIRQAPGKGLEWVSSISASGSYTNYADSVEGRFTISRDNAKNSLYLQMNSLRAEDTAVYYCARGDSYCGASACHGEFFHKWGQGTLVTVSS
VL: QSVLTQPPSVSGAPGQRVTISCTGSSSNIGADFDVHWYQQLPGTAPKLLIYGNINRPSGVPDRFSGSRSGTSAFLAITRLQAEDEADYYCQSYDRSLHYVFGAGTKVTVL
notes: MPH12 variant; VH and VL only
B5: MPH12 VH-FRGL / MPH12 VL (antibody, V domains shown)
VH: QVQLVESGGGLVKPGGSLRLSCAASGFTFSGFYMKWIRQAPGKGLEWVSSISASGSYTNYADSVEGRFTISRDNAKNSLYLQMNSLRAEDTAVYYCARGDSYCGASACHGEFFHKWGQGTLVTVSS
VL: QSVLTQPPSVSGAPGQRVTISCTGSDSNIGADFDVHWYQQLPGTAPKLLIYGNINRPSGVPDRFSGSRSGTSAFLAITRLQAEDEADYYCQSYDRSLHYVFGAGTKVTVL
notes: MPH12 variant; VH and VL only
B6: MPH12 VH-D62E / MPH12 VL-FRGL (antibody, V domains shown)
VH: QVQLVESGGGLVKPGGSLRLSCVASGFTFSGFYMKWIRQAPGKGLEWVSSISASGSYTNYAESVEGRFTVSRDNAKNSLFLLMSSLRAEDTAVYYCARGDSYCGASACHGEFFHKWGQGTLVTVSS
VL: QSVLTQPPSVSGAPGQRVTISCTGSDSNIGADFDVHWYQQLPGTAPKLLIYGNINRPSGVPDRFSGSKSGTSASLAITGLQAEDEADYYCQSYDRSLHYVFGTGTKVTVL
notes: MPH12 variant; VH and VL only
B7: MPK150-v2 (antibody, V domains shown)
VH: EVQLVESGGGLVKPGGSLRLSCEASGISLSGYYMIWIRQAPGKGLEWISSISGSSTYIDYADSVRGRFTISRHNGQNTIYLQMNSLRVEDTAVYFCATEQTPSPGPFELWGRGILVTVSS
VL: QSVLTQPPSVSGAPGQRVTIFCTGTSSNIGTGYDVHWYQQFPGTSPKLLIFRNSNRPSGVPDRFSGSKSGSSASLAIAGLQAEDEADYYCQSYDRGVNGWVFGGGTKLTVL
notes: VH and VL only
B8: MPK144 (antibody, V domains shown)
VH: EVQLVESGGGLVRPGGSLRLSCAASGFTFTGYYMMWIRQAPGKGLEWISDISSSSSYTNYADSVKGRFAISRDNAQNTLYLQMNSLRAEDTAVYYCATEQVPSPGPFDLWGQGTLVTVSS
VL: QSVLTQPPSVSGAPGQRVTISCTGSSSNFGAGYDVHWYQQFPGTSPKLLIYRNTNRPSGVPDRFSGSKSGTSASLAITGLQAEDEADYYCQSYDRSLTGWVFGGGTKLTVL
notes: VH and VL only
B9: MPK151 (antibody, V domains shown)
VH: EVQLVESGGGLVKPGGSLRLSCAASGLTISGYYMIWIRQAPGKGLEWISDISASSTYTDYAESVKGRFSISRDNGQNTVYLQMNSLRAEDTAVYYCATEQTPSPGPFDLWGQGTLVTVSS
VL: QSVLTQPPSVSGAPGQKITISCTGGSSNFGAGYDVHWYQQFPGTSPKLLIYRNTFRPSGVPDRFSGSKSGTSASLAITGLQAEDEADYYCQSYDRSLSGWVFGGGTKLTVL
notes: VH and VL only
B10: MPK174-v2 (antibody, V domains shown)
VH: EVQLVESGGGLVKPGGSLRLSCAASRFKFGDYYMSWIRQAPGKGLEWVSNISPSSSYTNYADSVKGRFTISRDNAKNLLYLQMNSLRAEDTAVYYCARESCSGGSCSLHGMDVWGQGTTVTVAS
VL: QSVLTQPPSVSGAPGQRVTISCTGSSSNIGAGYDVHWYQQLPGTAPKLLIYDNSNRPSGVPDRFSGSKSGTSASLAITGLRAEDDADYYCQSYDRSLGGSIFGGGTKLTVL
notes: VH and VL only
B11: MPK155 (antibody, V domains shown)
VH: EVQLVESGGGLVKPGGSLRLSCEASGISLSGYYMIWIRQAPGKGLEWISSISSSSNYIDYADSVRGRFTISRHNGQNTLYLQMNSLRVEDTAVYFCATEQTPSPGPFDLWGQGILVTVSS
VL: QSVLTQPPSVSGAPGQRVTIFCTGTSSNLGAGYDVHWYQQFPGTSPKLLIYRYTNRPSGVPDRFSGSKSGSSASLAIAGLQAEDEADYYCQSYDRSVSGWVFGGGTKLTVL
notes: VH and VL only
B12: MPK153 (antibody, V domains shown)
VH: EVHLVESGGGLVKPGGSLRLSCAASGFTFTGYFMIWIRQAPGKGLEWISYISSSSNYINYADSVKGRFTISRDNGQNTLYLQMNSLRPDDTAVYYCATEQVPSPGPFDLWGQGTLVTVSS
VL: QSVLTQPPSVSGAPGQRVIISCTGTSSNIGAGYDVHWYQQFPGASPKLLIFRNTDRPSGVPDRFSGSKSGSSASLAIAGLQAEDEADYYCQSYDRSLDGWVFGGGTKVTVL
notes: VH and VL only
B13: MPK149 (antibody, V domains shown)
VH: QVQLVESGGGLVKPGGSLRLSCEASGFTISGYFMIWIRQAPGKGLEWISSISGSSTYTDYAESVKGRFTISRDNGRSTLYLQMNSLRVEDTAVYYCATEQTPSPGPFDLWGQGTLVTVSS
VL: QSVVTQPPSVSGAPGQRVTISCTGTSSNIGAGYDVHWYQQFPGTSPRLLINRNTNRPSGVPDRFSGSQSGSSASLAIAGLQAEDEADYYCQSYDRSVSGWVFGGGTKLTVL
notes: VH and VL only
B14: MPK204 (antibody, V domains shown)
VH: QVQLVESGGGLVKPGGSLRLSCEASGLSLSGYYMIWIRQAPGKGLEWISSISSSSNYIDYADSVKGRFTISRHNGQNTLYLQMNSLRVEDTAVYYCATEQTPSPGPFDLWGQGTLVTVSS
VL: QSVLTQPPSVSGAPGQRVTISCTGTSSNIGTGYDVHWYQQFPGTSPKLLIYRNTNRPSGVPDRFSGSKSGSSASLAIAGLQAEDEADYYCQSYDRSVSGWVFGGGTKLTVL
notes: VH and VL only
B15: MPK146 (antibody, V domains shown)
VH: QVQLVESGGGLVKPGGSLRLSCAASGFTFSGYYMIWIRQAPGKGLEWIASISGSSNYIDYADSVRGRFTISRDNARNILDLQMNSLRAGDTALYYCATEQVPSPGPFDLWGQGTLVTVSS
VL: QSVLTQPPSVSGAPGQRVTISCTGSNSNLGAGYDVHWYQQFPGTSPKLLIYRNTNRPSGVPDRFAGSKSGTSASLAITGLQAEDEADYYCQSYDRSLSGWVFGGGTKLTVL
notes: VH and VL only
B16: MPK196 (antibody, V domains shown)
VH: QVQLVESGGGLVKPGGSLRLSCAASRFKFGDYYMSWIRQAPGKGLEWVSNISPSSSYTNYADSVKGRFTISRDNANNLLYLQMNSLRAEDTAVYYCARESCSGGSCSLHGMDVWGQGTTVTVAS
VL: QSVLTQPPSVSGAPGQRVTISCTGSSSNIGAGYDVHWYQQLPGTAPKLLIYDNSNRPSGVPDRFSGSKSGTSASLAITGLRAEDDADYYCQSYDRSLGGSIFGGGTKLTVL
notes: VH and VL only
B17: MPK152 (antibody, V domains shown)
VH: EVQLVESGGGLVKPGGSLRLSCAASGLTISGYYMIWIRQAPGKGLEWISYISGSSSYTNYADSVKGRFTISRDNGQNTLFLQMDSLRVEDTAVYFCATEETPSPGPFGLWGQGTLVTVSS
VL: QSVVTQPPSVSGAPGQRVTISCTGTSSNIGAGYDVHWYQQFPGTSPKLLIFRNTNRPSGVPDRFSGSTSGSSASLAITGLQTEDEADYYCQSYDRSLDGWVFGGGTELTVL
notes: VH and VL only
B18: MPK157 (antibody, V domains shown)
VH: EVQLVESGGGLVKPGGSLRLSCSASGFTLSGYNMNWVRQAPGKGLEWISYISASSSYINYADSVKGRFTISRDNGRSSLYLQMNSLRAEDTAVYFCTTQAELPGWFDPWGQGTLVTVSS
VL: QSVLTQPPSMSGAPGQRVTISCTGSSSNIGAGYDVNWYRQLPGTAPQLLIYRNTNRPSGVPDRFSGSNSGTSASLAITGLQADDEAHYYCQSYDRSLSGWVFGGGTKLTVL
notes: VH and VL only
B19: MPK162 (antibody, V domains shown)
VH: EVQLVESGGGLVKPGDSLRLSCAASGFSLSSYYMFWIRQAPGKGLEWVSDISGGSTFTNYADSVKGRFTISRDNAKKVLYLQMNSLRVDDSAVYYCVRGSSISPNWFESWGQGALVTVSS
VL: QSVLTQPPSVSGAPGQRVTISCTGTSSNIGAGYDVHWYQQVPGTAPKLLIYGNSNRPSGVPDRFSGSKSGTAASLAINGLQTEDEAEYYCQSYDRSLTGSYVFGSGTRVFVR
notes: VH and VL only
B20: MPK158 (antibody, V domains shown)
VH: EVQLVESGGGLVKPGGSLRLSCAASGFSISGFYMIWIRQAPGKGLEWISDISASSSYIDYADSVKGRFTISRDNGQNTVHLLMNNLRADDTGVYYCAREQTPSPGPFDLWGQGTLVTVST
VL: QPVLTQPPSVSGAPGQRVTISCTGRSSNIGAGYDVHWYQHLPGTSPKLLIYRNSNRPSGVPDRFSGSTSGTSASLAITGLQADDEADYYCQAYDRILGGWAFGGGTKLTVL
notes: VH and VL only
B21: MPK145 (antibody, V domains shown)
VH: EVQLVESGGGLVEPGGSLRLSCAASGFTISGYGMSWVRQAPGKGLEWVSSISASSSYIYYGDAMKGRITISRDNGWNSMYLQMNSLRTEDTAVYYCATAPIEPPYFDLWGRGTLVTVSS
VL: QSVVTQPPSVSGAPGQRVTISCTGSSSNIGAGYDVHWYQQFPGKAPKVLIYGNNNRPSGVPDRFAASNSGASASLAITGLQAEDEAAYFCQSYDRRLSGPVFGGGTKLTVL
notes: VH and VL only

Each binder was assayed against T1, DS-Cav1 RSV F (respiratory syncytial virus) (assay: ELISA on DS-Cav1 RSV F).
T1 construct: also called DC-VCav1

B1 and B2 are within 1.5-fold of each other in EC50: 0.0305 µg/mL for the first, 0.0397 µg/mL for the second.

Compared with B3, B4 is 1.6-fold lower in EC50: 0.034 µg/mL for the first, 0.0219 µg/mL for the second.

B5 and B6 are within 1.5-fold of each other in EC50: 0.0328 µg/mL for the first, 0.0267 µg/mL for the second.

The binders below were run against RSV fusion glycoprotein (RSV-F) (respiratory syncytial virus) (assay: SPR; F protein loaded on streptavidin sensors, mAb in solution).
Experimental: Binding affinity of mAbs for RSV-F protein, MPV-F D280 protein, and MPV-F N280 F variant protein was assessed using surface plasmon resonance (SPR).

B7 and B8 are the same in Kd: 1 pM for the first, 1 pM for the second.

First: B9
Second: B10
The Kd of the first is 80-fold higher: 80 pM for the first, 1 pM for the second.

Compared with B11, B12 is 73-fold higher in Kd: 6.3 pM for the first, 460 pM for the second. The first binds more tightly here.

First: B13
Second: B14
The Kd of the first is 290-fold lower: 1 pM for the first, 290 pM for the second. The first binds more tightly here.

Compared with B15, B16 is 9.5-fold lower in Kd: 9.5 pM for the first, 1 pM for the second. The second binds more tightly here.

B17 and B18 are the same in Kd: 1 pM for the first, 1 pM for the second.

Going from B19 to B20, the Kd falls from 100000 pM to 1 pM. The second binds more tightly here.

Binder B21 has a Kd of 1 pM.
